# Data: patent publication US20170081400A1 (CEPHALON, published 2017)
# Where a chain is given by its changes, count along the chain named.
# T1: human TL1A extracellular domain with N-terminal HIS and FLAG tag (human, UniProt O95150 72-251)
# T1 construct: the whole entry is named; also called TNFSF15
# T1 sequence: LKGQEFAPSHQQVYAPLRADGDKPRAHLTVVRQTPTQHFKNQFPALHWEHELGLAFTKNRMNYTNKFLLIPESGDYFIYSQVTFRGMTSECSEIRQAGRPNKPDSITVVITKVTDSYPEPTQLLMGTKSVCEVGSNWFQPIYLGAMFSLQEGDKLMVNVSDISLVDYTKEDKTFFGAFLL
# B1: 320-509 (antibody, human IgG1, name in Kabat numbering, V domains shown)
# VH: QVQLVQSGAEVKKPGASVKVSCKASGYTFTSYDINWVRQAPGQGLEWMGWLNHNSGNTGYAQKFQGRVTMTADRSTSTAYMELSSLRSEDTAVYYCAREVPETAAFEYWGQGTLVTVSS
# VL: QSVLTQPPSVSGAPGQRVTISCTSSSSDIGAGLGVHWYQQLPGTAPKLLIEGYYNRPSGVPDRFSGSKSGTSASLTITGLLPEDEGDYYCQSYDGTLSALFGGGTKLTVLG
# notes: full-length human IgG1, lambda
# B2: 320-519 (antibody, human IgG1, name in Kabat numbering, V domains shown)
# VH: B1 VH with H53P, N54K
# VL: B1 VL
# notes: as for B1
# B3: 320-538 (antibody, human IgG1, name in Kabat numbering, V domains shown)
# VH: B1 VH with H53P, G56W
# VL: B1 VL
# notes: as for B1
# B4: 320-514 (antibody, human IgG1, name in Kabat numbering, V domains shown)
# VH: B1 VH with H53P, N54A
# VL: B1 VL
# notes: as for B1
# B5: 320-520 (antibody, human IgG1, name in Kabat numbering, V domains shown)
# VH: B1 VH with H53P, N54L
# VL: B1 VL
# notes: as for B1
# B6: 320-527 (antibody, human IgG1, name in Kabat numbering, V domains shown)
# VH: B1 VH with H53P, S55K
# VL: B1 VL
# notes: as for B1
# B7: 320-531 (antibody, human IgG1, name in Kabat numbering, V domains shown)
# VH: B1 VH with H53P, G56A
# VL: B1 VL
# notes: as for B1
# B8: 320-528 (antibody, human IgG1, name in Kabat numbering, V domains shown)
# VH: B1 VH with H53P, S55L
# VL: B1 VL
# notes: as for B1
# B9: 320-533 (antibody, human IgG1, name in Kabat numbering, V domains shown)
# VH: B1 VH with H53P, G56Q
# VL: B1 VL
# notes: as for B1
# B10: 320-534 (antibody, human IgG1, name in Kabat numbering, V domains shown)
# VH: B1 VH with H53P, G56D
# VL: B1 VL
# notes: as for B1
# B11: 320-515 (antibody, human IgG1, name in Kabat numbering, V domains shown)
# VH: B1 VH with H53P, N54S
# VL: B1 VL
# notes: as for B1
# B12: 320-523 (antibody, human IgG1, name in Kabat numbering, V domains shown)
# VH: B1 VH with H53P, S55A
# VL: B1 VL
# notes: as for B1
# B13: 320-536 (antibody, human IgG1, name in Kabat numbering, V domains shown)
# VH: B1 VH with H53P, G56K
# VL: B1 VL
# notes: as for B1
# B14: 320-539 (antibody, human IgG1, name in Kabat numbering, V domains shown)
# VH: B1 VH with H53P, N57A
# VL: B1 VL
# notes: as for B1
# B15: 320-522 (antibody, human IgG1, name in Kabat numbering, V domains shown)
# VH: B1 VH with H53P, N54Y
# VL: B1 VL
# notes: as for B1
# B16: 320-521 (antibody, human IgG1, name in Kabat numbering, V domains shown)
# VH: B1 VH with H53P, N54W
# VL: B1 VL
# notes: as for B1
# B17: 320-525 (antibody, human IgG1, name in Kabat numbering, V domains shown)
# VH: B1 VH with H53P, S55D
# VL: B1 VL
# notes: as for B1
# B18: 320-518 (antibody, human IgG1, name in Kabat numbering, V domains shown)
# VH: B1 VH with H53P, N54H
# VL: B1 VL
# notes: as for B1
# B19: 320-535 (antibody, human IgG1, name in Kabat numbering, V domains shown)
# VH: B1 VH with H53P, G56H
# VL: B1 VL
# notes: as for B1
# B20: 320-537 (antibody, human IgG1, name in Kabat numbering, V domains shown)
# VH: B1 VH with H53P, G56L
# VL: B1 VL
# notes: as for B1
# B21: 320-510 (antibody, human IgG1, name in Kabat numbering, V domains shown)
# VH: B1 VH with H53K
# VL: B1 VL
# notes: as for B1
# B22: 320-512 (antibody, human IgG1, name in Kabat numbering, V domains shown)
# VH: B1 VH with H53W
# VL: B1 VL
# notes: as for B1
# B23: 320-529 (antibody, human IgG1, name in Kabat numbering, V domains shown)
# VH: B1 VH with H53P, S55W
# VL: B1 VL
# notes: as for B1
# B24: 320-524 (antibody, human IgG1, name in Kabat numbering, V domains shown)
# VH: B1 VH with H53P, S55Q
# VL: B1 VL
# notes: as for B1
# B25: 320-517 (antibody, human IgG1, name in Kabat numbering, V domains shown)
# VH: B1 VH with H53P, N54D
# VL: B1 VL
# notes: as for B1
# B26: 320-532 (antibody, human IgG1, name in Kabat numbering, V domains shown)
# VH: B1 VH with H53P, G56S
# VL: B1 VL
# notes: as for B1
# B27: 320-513 (antibody, human IgG1, name in Kabat numbering, V domains shown)
# VH: B1 VH with H53Y
# VL: B1 VL
# notes: as for B1
# B28: 320-526 (antibody, human IgG1, name in Kabat numbering, V domains shown)
# VH: B1 VH with H53P, S55H
# VL: B1 VL
# notes: as for B1
# B29: 320-530 (antibody, human IgG1, name in Kabat numbering, V domains shown)
# VH: B1 VH with H53P, S55Y
# VL: B1 VL
# notes: as for B1
# B30: 320-516 (antibody, human IgG1, name in Kabat numbering, V domains shown)
# VH: B1 VH with H53P, N54Q
# VL: B1 VL
# notes: as for B1
# B31: 320-540 (antibody, human IgG1, name in Kabat numbering, V domains shown)
# VH: B1 VH with H53P, N57S
# VL: B1 VL
# notes: as for B1
# B32: 320-511 (antibody, human IgG1, name in Kabat numbering, V domains shown)
# VH: B1 VH with H53L
# VL: B1 VL
# notes: as for B1
# Columns and labels:
# [1] = target: T1, human TL1A extracellular domain with …; assay: SPR Run 7, antibody on Protein A, TL1A 5 ug/mL, timepoint 44
# Description: (§1) 1.5. Antibody expression and antigen binding as determined by SPR. Using a CM5 sensor chip (GE Healthcare) Protein A (Pierce) was coupled to the chip surface using an amine coupling kit (GE Healthcare). Protein A was coupled on flow cell 1 and 2 (or alternatively 3 and 4) using a BIACORE® T200. […] The amount of supernatant or purified protein (as well as the concentration) injected during the capture stage varied between runs and is specified in the header of the Tables 3-11. At the end of injection of the supernatant or purified antibody the change in response units was measured. This value was reported as Capture Level in Tables 3-11. […] The response units were measured prior to the end of the dissociation phase. […] The sensorgrams were double referenced (flow cell 2 is subtracted from flow cell 1 and a buffer blank). As there were a large number of antibody variants to screen, these were screened across different runs (Tables 3-11). […] A summary of the conditions used in each run is below:
# (§2) 2.1. […] In some experiment the antibodies were purified using Protein A chromatography (See 1.4) and purified antibodies were used in BIACORE® (GE Healthcare) experiments.
# [2] = target: T1, human TL1A extracellular domain with …; assay: SPR Run 7, antibody on Protein A, TL1A 5 ug/mL, timepoint 220
# Description: as §1, §2
Binder,TL1A Binding Level (Early) [1],TL1A Binding Level (Late) [2]
B1,52 RU,47 RU
B2,217 RU,196 RU
B3,54 RU,49 RU
B4,96 RU,88 RU
B5,174 RU,162 RU
B6,146 RU,136 RU
B7,66 RU,61 RU
B8,121 RU,108 RU
B9,93 RU,86 RU
B10,109 RU,102 RU
B11,73 RU,67 RU
B12,88 RU,82 RU
B13,115 RU,105 RU
B14,172 RU,159 RU
B15,141 RU,129 RU
B16,166 RU,152 RU

Binder,TL1A Binding Level (Early) [1],TL1A Binding Level (Late) [2]
B17,33 RU,17 RU
B18,169 RU,153 RU
B19,126 RU,115 RU
B20,133 RU,123 RU
B21,44 RU,33 RU
B22,126 RU,118 RU
B23,94 RU,83 RU
B24,55 RU,49 RU
B25,55 RU,50 RU
B26,10 RU,7 RU
B27,99 RU,90 RU
B28,134 RU,124 RU
B29,77 RU,67 RU
B30,92 RU,86 RU
B31,100 RU,92 RU
B32,106 RU,98 RU
